Data reported in patent publication US20260116951A1 (DUCENTIS BIOTHERAPEUTICS, published 2026).

How the values were obtained:
[1] = biological target: T1, Mouse CD200R protein (Creative Biomart CD200R1-3280M) (mouse, UniProt Q9ES57 26-238); assay: SPR (BIAcore)
T1 construct: also called Murine CD200R1; murine CD200R
T1 sequence (looked up): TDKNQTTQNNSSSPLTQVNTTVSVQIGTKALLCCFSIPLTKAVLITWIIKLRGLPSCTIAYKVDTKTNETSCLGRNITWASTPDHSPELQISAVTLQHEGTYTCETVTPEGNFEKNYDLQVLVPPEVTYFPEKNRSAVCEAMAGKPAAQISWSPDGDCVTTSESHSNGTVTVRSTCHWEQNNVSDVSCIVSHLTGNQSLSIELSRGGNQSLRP

[2] = biological target: T2, Recombinant Human CD200R, His-tagged (Creative Biomart CD200R1-320H) (human, UniProt Q8TD46 27-266); assay: SPR, CD200R flowed over immobilized CD200-Fc, 25 C, 1:1 fit; reference is wild-type CD200-Fc DS-155
T2 construct: Bought; also called human CD200 receptor; not shown: His tag
T2 sequence (looked up): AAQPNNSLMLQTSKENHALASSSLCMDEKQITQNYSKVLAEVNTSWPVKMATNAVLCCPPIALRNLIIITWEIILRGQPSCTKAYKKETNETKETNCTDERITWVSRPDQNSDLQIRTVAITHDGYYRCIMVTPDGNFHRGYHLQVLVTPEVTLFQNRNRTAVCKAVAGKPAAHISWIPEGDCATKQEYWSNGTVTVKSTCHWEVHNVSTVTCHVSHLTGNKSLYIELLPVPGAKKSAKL
Description: (§1) For human CD200 constructs: anti-human Fc (GE Healthcare) was covalently immobilized on a BIAcore CM5 sensor chip (Cytiva, BR100530) by amine coupling using a Cytiva kit (BR100839) following the manufacturer's instructions, targeting immobilization of 8,000-11,000 RU. CD200-Fc proteins were diluted to 0.5 μg/mL to 4 μg/mL in running Buffer (1×HBS-EP+pH7.4 (Cytiva BR100669), HEPES Buffered Saline pH 7.4 containing 3 mM EDTA and 0.05% v/v Surfactant P20) and flowed for 25 to 100 seconds at 10 μL/min over the immobilized Anti-Human IgG Fc, with a stabilization time of 60 seconds. Between 35 and 250 RUs of CD200-Fc were captured, with higher RUs used for cynomolgus CD200R binding experiments. […] Analysis temperature was 25° C. This was followed by regeneration of the surface with 30-90 second pulse of 3M MgCl₂ flowed at […] flow rate followed by stabilization of the surface with 60 second flow of running buffer.
Curves obtained were fitted to 1:1 Langmuir binding model by setting Rmax and RI as local parameters. Rate equations using standard parameters (e.g. ligand concentration, time) were used for iterative curve fitting. […] Means of 2 experiments carried out on the same day are shown with standard deviation. Residue numbering for CD200 proteins refers to the pre-protein, containing a signal peptide which is cleaved during insertion into the endoplasmic reticulum.

[3] = biological target: T2, Recombinant Human CD200R, His-tagged …; assay: SPR (BIAcore T200), CD200-Fc captured on anti-human Fc, CD200R flowed, 25 C, 1:1 fit, mean of two runs
Description: The experiments were performed on a GE Healthcare BIAcore T200. Human, cynomolgus and mouse CD200R proteins were purchased from Creative Biomart (CD200R1-320H, CD200R1-3483C, CD200R1-3280M). All measurements were performed in duplicate.
as §1
(§2) For mouse CD200 constructs, muCD200R-Fc (Creative Biomart CD200R1-458M) diluted to 1 μg/mL in running buffer was flowed over the immobilized Anti-Human IgG Fc, with CD200 monomers serially diluted and flowed over captured CD200R. Other details were as above. Data analysis: experimental sensorgrams were analyzed in BIAevaluation software (GE Healthcare). The curves obtained were fitted to 1:1 Langmuir binding model by setting Rmax and RI as local parameters. Rate equations using standard parameters (e.g. ligand concentration, time) were used for iterative curve fitting. Closeness of fit was determined by algorithms provided by the manufacturer in the BIAevaluation software, and data accepted if the Chi² value was less than 10% of Rₘₐₓ, and the U value was less than or equal to 15.

[4] = biological target: T3, Human CD200R, full length, on transduced U937 cells (U937-CD200R) (human, UniProt Q8TD46 25-348); assay: Flow cytometry on U937-CD200R cells, 4 hours incubation at 37 C, fluorescent anti-human secondary antibody
T3 construct: whole, on cells; also called U937-CD200R cells; CD200R-expressing U937 cells
T3 sequence (looked up): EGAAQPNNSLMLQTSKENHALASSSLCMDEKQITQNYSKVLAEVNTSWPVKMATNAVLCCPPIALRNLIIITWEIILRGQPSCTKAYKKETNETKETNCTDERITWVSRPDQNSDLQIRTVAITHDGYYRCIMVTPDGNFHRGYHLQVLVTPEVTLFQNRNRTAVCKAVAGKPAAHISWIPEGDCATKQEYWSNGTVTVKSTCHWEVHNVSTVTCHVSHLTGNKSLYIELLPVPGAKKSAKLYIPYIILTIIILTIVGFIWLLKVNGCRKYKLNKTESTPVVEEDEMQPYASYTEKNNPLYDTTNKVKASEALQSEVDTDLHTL
Description: Construct treatment (50 μL) was performed starting from 10 μg/mL with 3-fold dilutions up to 10 concentrations with FACS buffer and incubated for 1-hour, 4-hours and 24-hours at 37° C. At the end of each time point, cells were collected and washed. 10 μg/mL of anti-human secondary antibody was added and incubated for 30 minutes at 4° C. Cells were washed post incubation and stained to check viability (1 μL dye per million cells per mL 1×PBS) for 20 minutes at 4° C. Cells were washed and fixed with Fixation buffer (100 μL per test) at 4° C. for 20 minutes. Post incubation, cells were washed and the pellet was re-suspended in FACS buffer (100 μL per test) for data acquisition on flow cytometer.

[5] = biological target: T4, Recombinant Cyno CD200R, His-tagged (Creative Biomart CD200R1-3483C) (cynomolgus monkey); assay: SPR (BIAcore), DS-118 captured (0.5 ug/mL), CynoCD200R1 flowed at 1000 nM to 62.5 nM, 25 C, 1:1 Binding model, run 2
T4 construct: Bought; also called cynomolgus CD200R1; cynomolgus CD200R
Description: as §1, §2

B1: DS-118 (mutated human CD200-Fc fusion protein, K130Y, I131Y, IgG4 S228P Fc) (Fc fusion)
chain: QVQVVTQDEREQLYTPASLKCSLQNAQEALIVTWQKKKAVSPENMVTFSENHGVVIQPAYKDKINITQLGLQNSTITFWNITLEDEGCYMCLFNTFGFGYYSGTACLTVYVQPIVSLHYKFSEDHLNITCSATARPAPMVFWKVPRSGIENSTVTLSHPNGTTSVTSILHIKDPKNQVGKEVICQVLHLGTVTDFKQTVNKGPPCPPCPAPEFLGGPSVFLFPPKPKDTLMISRTPEVTCVVVDVSQEDPEVQFNWYVDGVEVHNAKTKPREEQFNSTYRVVSVLTVLHQDWLNGKEYKCKVSNKGLPSSIEKTISKAKGQPREPQVYTLPPSQEEMTKNQVSLTCLVKGFYPSDIAVEWESNGQPENNYKTTPPVLDSDGSFFLYSRLTVDKSRWQEGNVFSCSVMHEALHNHYTQKSLSLSLGK
notes: also called mutated CD200-Fc; mutant CD200-Fc
**Q.** Does B1 bind [1]?
**A.** no binding

**Q.** What about the “fold increase in affinity from wild type (DS-155)” value [2] of the same binder?
**A.** > 130 fold

**Q.** And the Kd [3]?
**A.** 1.3 nM

**Q.** And the koff [3]?
**A.** 0.000304 s⁻¹

**Q.** And the kon [3]?
**A.** 231000 M⁻¹ s⁻¹

**Q.** What about the “EC50 (read off the curve)” value [4] of the same binder?
**A.** ~0.9 µg/mL

**Q.** And the Kd [5]?
**A.** 204 nM

**Q.** And the koff [5]?
**A.** 0.0596 s⁻¹

**Q.** And the kon [5]?
**A.** 292000 M⁻¹ s⁻¹
